Starred links: 1 amine or outer side, 2 acyl side, 3 side chain; linkers in the order of their positions; H or OH if unused. Non-standard residues stand in square brackets, D forms with d. Groups on a side chain read outwards from the residue. *: point of attachment. ButanoicP = (R)-4-(pyrrolidin-2-yl)butanoic acid, O=C(CCC[C@@H]1CCCN1[*:1])[*:2]; Ala(1H-tetrazol-5-yl) = N[C@@H](Cc1nnn[nH]1)C(=O)O; Dip = N[C@H](C(=O)O)C(c1ccccc1)c1ccccc1; His(τ-Me) = Cn1cnc(C[C@H](N)C(=O)O)c1; Stearoyl = CCCCCCCCCCCCCCCCCC(=O)*; Palmitoyl = CCCCCCCCCCCCCCCC(=O)*; Myristoyl = CCCCCCCCCCCCCC(=O)*; β3hF = N[C@H](CC(=O)O)Cc1ccccc1; Isovaleryl = CC(C)CC(=O)*; AEEA = NCCOCCOCC(=O)O; Ahx = NCCCCCC(=O)O; βAla = NCCC(=O)O

T1: human ferroportin (SLC40A1) fused in frame with GFP, stably expressed in HEK293 cells (human, UniProt Q9NP59 1-571)
T1 sequence (looked up): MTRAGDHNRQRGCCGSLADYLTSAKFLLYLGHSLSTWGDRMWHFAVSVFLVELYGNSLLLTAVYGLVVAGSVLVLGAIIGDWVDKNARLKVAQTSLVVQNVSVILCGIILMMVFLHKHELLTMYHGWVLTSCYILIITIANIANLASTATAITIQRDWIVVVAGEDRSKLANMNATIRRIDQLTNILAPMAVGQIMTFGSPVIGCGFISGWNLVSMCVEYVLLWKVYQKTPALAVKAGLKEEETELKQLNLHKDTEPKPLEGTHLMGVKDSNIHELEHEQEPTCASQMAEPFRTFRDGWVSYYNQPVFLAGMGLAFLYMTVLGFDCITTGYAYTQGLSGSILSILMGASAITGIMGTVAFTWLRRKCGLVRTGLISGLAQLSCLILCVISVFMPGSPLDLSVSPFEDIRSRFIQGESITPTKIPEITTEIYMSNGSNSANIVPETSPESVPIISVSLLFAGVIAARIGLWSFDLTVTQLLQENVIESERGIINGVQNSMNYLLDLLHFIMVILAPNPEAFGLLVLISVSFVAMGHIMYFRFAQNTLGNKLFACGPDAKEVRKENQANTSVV

B1: Isovaleric Acid-E-T-H-[Dpa]-P-A-I-[Lys(1PEG2_1PEG2_Ahx_Palm)]-[bhPhe]-NH2 (peptide)
peptide: Isovaleryl-ETH[Dip]PAIK([AEEA-AEEA-Ahx-Palmitoyl])[β3hF]-NH2
SMILES: CCCCCCCCCCCCCCCC(=O)NCCCCCC(=O)NCCOCCOCC(=O)NCCOCCOCC(=O)NCCCC[C@H](NC(=O)[C@@H](NC(=O)[C@H](C)NC(=O)[C@@H]1CCCN1C(=O)[C@@H](NC(=O)[C@H](Cc1c[nH]cn1)NC(=O)[C@@H](NC(=O)[C@H](CCC(=O)O)NC(=O)CC(C)C)[C@@H](C)O)C(c1ccccc1)c1ccccc1)[C@@H](C)CC)C(=O)N[C@H](CC(N)=O)Cc1ccccc1
B2: Isovaleric Acid-[Tet1]-T-H-[Dpa]-P-A-I-[Lys(Ahx_Palm)]-NH2 (peptide)
peptide: Isovaleryl-[Ala(1H-tetrazol-5-yl)]TH[Dip]PAIK([Ahx-Palmitoyl])-NH2
SMILES: CCCCCCCCCCCCCCCC(=O)NCCCCCC(=O)NCCCC[C@H](NC(=O)[C@@H](NC(=O)[C@H](C)NC(=O)[C@@H]1CCCN1C(=O)[C@@H](NC(=O)[C@H](Cc1c[nH]cn1)NC(=O)[C@@H](NC(=O)[C@H](Cc1nnn[nH]1)NC(=O)CC(C)C)[C@@H](C)O)C(c1ccccc1)c1ccccc1)[C@@H](C)CC)C(N)=O
B3: Isovaleric Acid-[Tet1]-T-[His_1Me]-[Dpa]-[ButanoicP]-[Lys(Ahx_Palm)]-NH2 (peptide)
peptide: Isovaleryl-[Ala(1H-tetrazol-5-yl)]T[His(τ-Me)][Dip][ButanoicP]K([Ahx-Palmitoyl])-NH2
SMILES: CCCCCCCCCCCCCCCC(=O)NCCCCCC(=O)NCCCC[C@H](NC(=O)CCC[C@@H]1CCCN1C(=O)[C@@H](NC(=O)[C@H](Cc1cn(C)cn1)NC(=O)[C@@H](NC(=O)[C@H](Cc1nnn[nH]1)NC(=O)CC(C)C)[C@@H](C)O)C(c1ccccc1)c1ccccc1)C(N)=O
B4: Isovaleric Acid-[Tet1]-T-[His_1Me]-[Dpa]-P-A-I-[Lys(Ahx_Palm)]-NH2 (peptide)
peptide: Isovaleryl-[Ala(1H-tetrazol-5-yl)]T[His(τ-Me)][Dip]PAIK([Ahx-Palmitoyl])-NH2
SMILES: CCCCCCCCCCCCCCCC(=O)NCCCCCC(=O)NCCCC[C@H](NC(=O)[C@@H](NC(=O)[C@H](C)NC(=O)[C@@H]1CCCN1C(=O)[C@@H](NC(=O)[C@H](Cc1cn(C)cn1)NC(=O)[C@@H](NC(=O)[C@H](Cc1nnn[nH]1)NC(=O)CC(C)C)[C@@H](C)O)C(c1ccccc1)c1ccccc1)[C@@H](C)CC)C(N)=O

For this experiment, the target named is T1, human ferroportin (SLC40A1) fused in …. Put plainly: cell-based or functional assay.
As for B1, the “FPN EC50” value amounted to 63.5 nM.

Take B2: the “FPN EC50” value worked out at 44.1 nM.

On to Isovaleryl-ETH[Dip]PAIK([Ahx-C10])[β3hF]-NH2 [Isovaleric Acid-E-T-H-[Dpa]-P-A-I-[Lys(Ahx_C10)]-[bhPhe]-NH2], for which the “FPN EC50” value came to 123 nM.

Regarding Isovaleryl-ETH[Dip]PAIK([Ahx-Stearoyl])[β3hF]-NH2 [Isovaleric Acid-E-T-H-[Dpa]-P-A-I-[Lys(Ahx_C18)]-[bhPhe]-NH2], the “FPN EC50” value is 82.2 nM.

In the case of Isovaleryl-ETH[Dip]PAIK([βAla-Palmitoyl])[β3hF]-NH2 [Isovaleric Acid-E-T-H-[Dpa]-P-A-I-[Lys(bAla_Palm)]-[bhPhe]-NH2], the “FPN EC50” value was 62.9 nM.

Consider Isovaleryl-ET[His(τ-Me)][Dip]PAIK([Ahx-Palmitoyl])-NH2 [Isovaleric Acid-E-T-[His_1Me]-[Dpa]-P-A-I-[Lys(Ahx_Palm)]-NH2], for which the “FPN EC50” value stood at 73 nM.

As for B3, the “FPN EC50” value was found to be 214 nM.

On to Isovaleryl-ETH[Dip]PAIK([Ahx-C22])[β3hF]-NH2 [Isovaleric Acid-E-T-H-[Dpa]-P-A-I-[Lys(Ahx_C22)]-[bhPhe]-NH2], for which the “FPN EC50” value is 1330 nM.

In the case of Isovaleryl-ETH[Dip]PAIK([Ahx-Myristoyl])[β3hF]-NH2 [Isovaleric Acid-E-T-H-[Dpa]-P-A-I-[Lys(Ahx_C14)]-[bhPhe]-NH2], the “FPN EC50” value turned out to be 92.4 nM.

Consider Isovaleryl-ETH[Dip]PAIK([AEEA-AEEA-Palmitoyl])[β3hF]-NH2 [Isovaleric Acid-E-T-H-[Dpa]-P-A-I-[Lys(1PEG2_1PEG2_Palm)]-[bhPhe]-NH2], for which the “FPN EC50” value was determined as 73.7 nM.

Take B4: the “FPN EC50” value was determined as 30.2 nM.

These data come from patent US20240066131A1 (Protagonist Therapeutics, Inc., priority 2020, published 2024).
